Test results as given in patent publication US20240075137A1 (COMPUGEN, published 2024).
Substitutions are numbered along the chain they refer to. In names and notes the source's numbering stands.

T1: human TIGIT ECD with C-terminal polyhistidine tag (human, UniProt Q495A1 22-141)
T1 construct: in-house or Sino Biological; also called hTIGIT-HIS; human TIGIT-HIS
T1 sequence: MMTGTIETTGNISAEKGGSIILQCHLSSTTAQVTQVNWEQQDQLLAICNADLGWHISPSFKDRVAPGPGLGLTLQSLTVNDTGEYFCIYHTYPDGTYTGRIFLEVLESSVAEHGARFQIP

T2: human TIGIT on cells (human, UniProt Q495A1 22-141)
T2 construct: also called Expi293 human TIGIT over-expressing cells
T2 sequence: T1 sequence

T3: Mouse TIGIT-His (mouse, UniProt P86176)
T3 construct: also called mouse TIGIT monomer (prepared in-house)
T3 sequence (soluble monomer with His tag, looked up): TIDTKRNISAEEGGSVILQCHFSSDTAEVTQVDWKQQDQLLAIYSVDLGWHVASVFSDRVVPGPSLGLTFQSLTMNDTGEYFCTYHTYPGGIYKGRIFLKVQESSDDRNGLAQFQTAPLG

T4: human PVRIG on cells (human, UniProt Q6DKI7 1-326)
T4 construct: whole, on cells; over-expressed on HEK cells or endogenous on Jurkat and CD8 T cells; also called hPVRIG; HEK hPVRIG cells
T4 sequence (looked up): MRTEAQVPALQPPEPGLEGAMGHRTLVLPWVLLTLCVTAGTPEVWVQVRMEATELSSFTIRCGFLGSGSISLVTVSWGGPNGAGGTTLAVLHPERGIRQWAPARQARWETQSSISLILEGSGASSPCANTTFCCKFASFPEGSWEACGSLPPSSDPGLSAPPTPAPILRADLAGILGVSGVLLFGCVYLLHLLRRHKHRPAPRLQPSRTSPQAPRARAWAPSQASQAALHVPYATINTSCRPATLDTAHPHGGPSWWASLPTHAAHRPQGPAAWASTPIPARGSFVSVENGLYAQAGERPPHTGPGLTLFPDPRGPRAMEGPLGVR

B1: CPA.9.083 (fab) (Fab, V domains shown)
VH: EVQLVETGGGLIQPGRSLRLSCAASGFTFSSYAMHWVRQAPGKGLEWVAVISYDGTPVYYADSVKGRFTISRDNSKNTLYLQMNSLRAEDTAVYYCARDPLPLHYYGMDVWGQGTTVTVSS
VL: QSALTQPRSASGNPGQRVTISCSGSSSNMGRRPVNWYQQIPGTAPKLLIYSQNQRPSGVPDRFSGSQSGTSASLTISGLQSEDEAEYFCAVWDGDRRSLQLGGGTQLAVLG
notes: variant of CPA.9.027 screened as fab
B2: CPA.9.027 hIgG4 (antibody, V domains shown)
VH: B1 VH with T56S, P57N, V58K
VL: B1 VL with G94D, D95S, R96L, R97S
notes: phage-derived anti-TIGIT, human IgG4; also called CPA.9.027-H4
B3: CPA.9.083.H4(S241P) (antibody, human IgG4, V domains shown)
VH: B1 VH
VL: B1 VL
B4: CPA.9.089 (fab) (Fab, V domains shown)
VH: B1 VH with G55R
VL: QSALTQPRSASGNPGQRVTISCSGSSSNMGRRPVNWYQQIPGTAPKLLIYSQNQRPSGVPDRFSGSQSGTSASLTISGLQSEDEAEYFCATWDDSLPRLNFGGGTKLAVL
notes: as for B1
B5: CPA.9.049 hIgG4 (antibody, V domains shown)
VH: B1 VH with T56S, P57N, V58K
VL: B1 VL with G94D, D95S, R96L, R97F, Q100L
notes: phage-derived anti-TIGIT, human IgG4; also called CPA.9.049-H4
B6: CPA.9.086 (fab) (Fab, V domains shown)
VH: B1 VH with D54A, T56E, P57V, V58K
VL: B1 VL with G94D, D95I, R96G, S98V
notes: as for B1
B7: CPA.9.093 (fab) (Fab, V domains shown)
VH: B1 VH with D54E, T56D, P57R, V58K
VL: B4 VL with L96T, R98H, L99G, N100V
notes: as for B1
B8: CHA.9.547.7.H4(S241P) (antibody, human IgG4 S228P, kappa, V domains shown)
VH: EVQLVESGGGLVQPGGSLRLSCAASGFTFSSYIMSWVRQAPGKGLEWVATISGGGTNTYYADSVKGRFTISRDNSKNTLYLQMNSLRAEDTAVYYCAKWLLSYYAMDYWGQGTLVTVSS
VL: DIQMTQSPSSLSASVGDRVTITCRASQNINVWLTWYQQKPGKAPKLLIYKASKSHTGVPSRFSGSGSGTDFTLTISSLQPEDFATYYCQQGQSYPYTFGQGTKLEIKR
notes: humanized hybridoma anti-TIGIT antibody, human IgG4
B9: CHA.9.547.13.H4(S241P) (antibody, human IgG4, V domains shown)
VH: B8 VH
VL: DIQMTQSPSSLSASVGDRITITCRASQNINVWLSWYQQKPGKAPKLLIYKASKSHTGVPSRFSGSGSGTDFTLTISSLQPEDFATYYCQQGQSYPYTFGQGTKLEIK
notes: humanized hybridoma antibody, human IgG4 (S241P)
B10: CPA.7.021 (antibody, V domains shown)
VH: EVQLVESGGGVVKPGGSLRLSCAASGFTFGTSSMNWVRQAPGKGLEWVAVISFDGTEIHYADSVKGRFTISRDNSKSTVFLQMNSLRPDDTALYYCAKGSGNIYFYSGMDVWGQGTTVTVSS
VL: DIQMTQSPSTLSASVGDRVTITCRAGQSISGWLAWFQQKPGKAPNLLIYETSTLESGVPSRFSGSGSGTEYTLTISSLQPDDFATYYCQQYYSYPLTFGQGTKVEIKR

Experiments:
[1] = biological target: T1, human TIGIT ECD with C-terminal …; test: affinity maturation screen of fabs, SPR on hTIGIT-HIS
human TIGIT on cells [2] = biological target: T2, human TIGIT on cells; test: flow cytometry of fab; MFI on human TIGIT over-expressing Expi293 / MFI on parental Expi293
cyno TIGIT on cells [3] = biological target: T5, cyno TIGIT on cells (cynomolgus macaque); test: flow cytometry of fab; MFI on cyno TIGIT over-expressing Expi293 / MFI on parental Expi293
T5 construct: whole, on cells; also called Expi293 cyno TIGIT over-expressing cells

human TIGIT on cells [4] = biological target: T2, human TIGIT on cells; test: FACS KD on Expi293 human TIGIT over-expressing cells; ± 95% CI of the fit
[5] = biological target: T1, human TIGIT ECD with C-terminal …; test: SPR (ProteOn), mAb captured, human TIGIT injected
Description: (§1) All experiments were performed using a ProteOn XPR 36 instrument at 22° C. First, high density capture surfaces were prepared with goat anti human Fc polyclonal antibody (Thermo #H10500) and rabbit anti mouse antibodies (GE Healthcare #BR100838), respectively, immobilized over all vertical capture lanes and horizontal interspots on separate GLC chips using standard amine coupling. Typical immobilization levels for the anti-human capture pAb and the anti-mouse capture antibody for each GLC chip were around 5000 RU. Human TIGIT was obtained from Sino Biologicals while mouse TIGIT monomer and cyno TIGIT monomer were prepared in-house.
(§2) Each mAb was diluted to ˜0.5 μg/mL in running buffer which was 1×PBST with filtered BSA added to a final concentration of 100 μg/mL. For each “single-shot kinetics” cycle on the ProteOn instrument, a different mAb was captured over one of the six unique vertical capture lanes for approximately 1.5-2.5 minutes. After switching the buffer flow of the ProteOn to the horizontal direction, capture surfaces were stabilized for approximately 15-20 minutes. […] An identical buffer injection preceded each series of injected antigen for double-referencing. […] The sensorgrams of TIGIT antigen injected over captured mAbs were processed using a ProteOn version of Scrubber and were fit to a 1:1 kinetic binding model including a term for mass transport.

human TIGIT on cells [6] = biological target: T2, human TIGIT on cells; test: FACS blocking: Expi293 human TIGIT cells pre-incubated with mAb, then human PVR-m2aFc; lower gMFI = more blocking
cyno TIGIT on cells [7] = biological target: T5, cyno TIGIT on cells; test: FACS KD on Expi293 cyno TIGIT over-expressing cells; ± 95% CI of the fit
Mouse TIGIT-His [8] = biological target: T3, Mouse TIGIT-His; test: SPR (ProteOn), mAb captured, mouse TIGIT monomer injected
Description: as §1, §2

Mouse TIGIT-His [9] = biological target: T3, Mouse TIGIT-His; test: SPR (ProteOn), Mouse TIGIT-His
human TIGIT on cells [10] = biological target: T2, human TIGIT on cells; test: FACS titration of AF647-labelled mAb on human effector memory CD8+ T cells, Donor 334
human TIGIT on cells [11] = biological target: T2, human TIGIT on cells; test: FACS blocking of human PVR-m2aFc binding to human TIGIT OE Expi293 cells; binding site concentration; n=2
[12] = biological target: T1, human TIGIT ECD with C-terminal …; test: SPR (ProteOn), Human TIGIT-His
Cyno TIGIT-His = biological target: T6, Cyno TIGIT-His; test: SPR (ProteOn), Cyno TIGIT-His
T6 construct: also called cyno TIGIT monomer (prepared in-house); C-terminal HIS-tagged cyno TIGIT ECD recombinant protein

human TIGIT on cells [13] = biological target: T2, human TIGIT on cells; test: FACS titration of AF647-labelled mAb on human effector memory CD8+ T cells, Donor 322
cyno TIGIT on cells [14] = biological target: T5, cyno TIGIT on cells; test: FACS titration of AF647-labelled mAb on cyno effector memory CD8+ T cells, Cyno Donor 1; isotype gMFI subtracted
human TIGIT on cells [15] = biological target: T2, human TIGIT on cells; test: FACS titration of AF647-labelled mAb on human effector memory CD8+ T cells, Donor 321
cyno TIGIT on cells [16] = biological target: T5, cyno TIGIT on cells; test: FACS titration on cyno TIGIT OE Expi293 cells, binding site concentration; ± 95% CI; 'Fit: Good/Excellent'
Description: AF647-labeled goat anti-human F(ab′) (Jackson Immunoresearch) was added to the cells to detect binding of anti-TIGIT antibodies. The gMFI of the anti-TIGIT antibodies bound to the cyno TIGIT over-expressing Expi293 cells (black line), and the parental Expi293 cells (grey line) are shown.

human TIGIT on cells [17] = biological target: T2, human TIGIT on cells; test: FACS blocking of human PVR-m2aFc binding to human TIGIT OE Expi293 cells; binding site concentration; n=1
human TIGIT on cells [18] = biological target: T2, human TIGIT on cells; test: FACS titration on human TIGIT OE Expi293 cells, binding site concentration; ± 95% CI; 'Fit: Excellent'
Description: AF647-labeled goat anti-human F(ab′) (Jackson Immunoresearch) was added to the cells to detect binding of anti-TIGIT antibodies.

[19] = biological target: T1, human TIGIT ECD with C-terminal …; test: KinExA equilibrium, His-tagged human TIGIT, n = 1
Description: KinExA equilibrium experiments were performed using a KinExA 3200 instrument (Sapidyne Instruments, Boise, ID, USA) at 22° C. Recombinant His-tagged human TIGIT was obtained from Sino Biologicals (Beijing, China) and reconstituted into 1×PBS. All antigen and antibody samples for KinExA analyses were prepared in degassed PBST buffer (PBS with 0.05% tween 20) with 100 ug/mL filtered BSA and 0.02% sodium azide. […] For each KinExA experiment, ˜20 lag of human TIGIT was diluted into 1 mL of 50 mM sodium carbonate, pH 9.2 which was added directly to 50 mg of azlactone beads (Ultralink Support, Thermo Scientific, Rockford, IL, USA) and rocked overnight at 4° C. After rocking, the beads were rinsed once with 1 M Tris buffer, pH 8.5, containing 10 mg/mL BSA and rocked for one hour at room temperature in the same buffer. Coupled beads were added to the bead reservoir in the KinExA instrument and diluted to ˜30 mL with 1×HBS-N (0.01 M Hepes, 0.15M NaCl, GE Healthcare) containing 0.02% sodium azide which was also the running buffer for the KinExA instrument. All antigen-coupled beads were used immediately after preparation.
The volume flowed through the bead pack for each equilibrated sample for all experiments ranged from 4 mL to 11 mL at a flow rate of 0.25 mL/min.

cyno TIGIT on cells [20] = biological target: T5, cyno TIGIT on cells; test: FACS titration of AF647-labelled mAb on cyno effector memory CD8+ T cells, Cyno Donor 3; isotype gMFI subtracted
human PVRIG on cells [21] = biological target: T4, human PVRIG on cells; test: FACS on Jurkat cells; column head 'Kd', unit nM from legend paragraph 75
human PVRIG on cells [22] = biological target: T4, human PVRIG on cells; test: FACS on HEK hPVRIG cells; column head 'Kd', unit nM from legend paragraph 75

T6 sequence (ECD with C-terminal His tag, as listed by the source): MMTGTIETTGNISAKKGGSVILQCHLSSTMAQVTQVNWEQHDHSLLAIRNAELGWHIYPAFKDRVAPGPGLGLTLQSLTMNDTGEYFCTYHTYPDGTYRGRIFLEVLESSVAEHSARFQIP

Binder | fold improvement in binding over CPA.9.027 [1] [fold] | MFIr (OE/Par) hTIGIT (human TIGIT on cells [2]) | MFIr (OE/Par) cTIGIT (cyno TIGIT on cells [3]) | Kd (human TIGIT on cells [10]) [nM] | IC50 (human TIGIT on cells [11]) [nM] | Kd (human TIGIT on cells [13]) [nM] | Kd (human TIGIT on cells [15]) [nM] | Kd (cyno TIGIT on cells [16]) [nM] | IC50 (human TIGIT on cells [17]) [nM] | Kd (human TIGIT on cells [18]) [nM] | also measured
B1 | ≥ 25 | 170 | 97 |  |  |  |  |  |  |  | 
B2 |  |  |  |  |  |  |  |  |  |  | Kd (human TIGIT on cells [4]): 0.17 nM; Kd [5]: 0.13 nM; gMFI of bound PVR-m2aFc at 266 pM mAb (human TIGIT on cells [6]): 529; gMFI of bound PVR-m2aFc at 1.3 nM mAb (human TIGIT on cells [6]): 253; gMFI of bound PVR-m2aFc at 6.7 nM mAb (human TIGIT on cells [6]): 208; Kd (cyno TIGIT on cells [7]): 2.25 nM; Kd (Mouse TIGIT-His [8]): 80 nM
B3 |  |  |  | 0.13 | 0.22 | 0.12 | 0.13 | 0.49 | 0.47 | 0.39 | Kd (Mouse TIGIT-His [9]): 0.434 nM; Kd [12]: 0.0017 nM; binding result (Cyno TIGIT-His): binds; Kd (cyno TIGIT on cells [14]): 0.82 nM; Kd [19]: 0.000694 nM; Kd (cyno TIGIT on cells [20]): 0.88 nM
B4 | ≥ 25 | 110 | 52 |  |  |  |  |  |  |  | 
B5 |  |  |  |  |  |  |  |  |  |  | Kd (human TIGIT on cells [4]): 0.26 nM; Kd [5]: 0.0945 nM; gMFI of bound PVR-m2aFc at 266 pM mAb (human TIGIT on cells [6]): 511; gMFI of bound PVR-m2aFc at 1.3 nM mAb (human TIGIT on cells [6]): 276; gMFI of bound PVR-m2aFc at 6.7 nM mAb (human TIGIT on cells [6]): 215; Kd (cyno TIGIT on cells [7]): 1.88 nM; Kd (Mouse TIGIT-His [8]): 82.7 nM
B6 | ≥ 25 | 36 | 34 |  |  |  |  |  |  |  | 
B7 | ≥ 25 | 80 | 60 |  |  |  |  |  |  |  | 
B8 |  |  |  | 1.8 | 0.15 | 2.1 | 1.8 | 1.54 | 0.21 | 0.82 | binding result (Mouse TIGIT-His [9]): no binding (tested: not printed); Kd [12]: 0.035 nM; Kd (Cyno TIGIT-His): 0.456 nM
B9 |  |  |  | 1.2 | 0.21 | 1.9 | 2 | 1.67 | 0.26 | 0.71 | Kd [19]: 0.0188 nM
B10 |  |  |  |  |  |  |  |  |  |  | Kd (human PVRIG on cells [21]): 3.18 nM; Kd (human PVRIG on cells [22]): 2.94 nM
